B1: His-TCP7 (natural protein)
chain: not shown
notes: TCP7 (AT5G23280), Arabidopsis thaliana; Cloned into BamHI/SalI-digested pET32a; also called recombinant His-TCP7; pET32a-TCP7; source: E. coli Rosetta (DE3), purified (Ni-NTA agarose)
B2: His-TCP21 (natural protein)
chain: not shown
notes: TCP21 (AT5G08330), Arabidopsis thaliana; Cloned into BamHI/SalI-digested pET32a; also called recombinant His-TCP21; pET32a-TCP21; source: E. coli Rosetta (DE3), purified (Ni-NTA agarose)
B3: GST-DSK2B CT (domain or fragment, Arabidopsis thaliana, UniProt Q9SII8 237-551, looked up)
chain: MRNTDRAMSNIESMPEGFNMLRRMYENVQEPLMNATTMSGNAGNNTGSNPFAALLGNQGVTTQGSDASNNSSTPNAGTGTIPNANPLPNPWGATGGQTTAPGRTNVGGDARSPGLGGLGGLGSLGGLGGLGMLGADSPLGATPDASQLSQLLQNPAISQMMQSVFSNPQYMNQLMSLNPQLRSMLDSNPQLREMMQNPDFLRQFSSPEMMQQMMTLQQSLSQNRNTASQDAGQTGAATGNNGGLDLLMNMFGSLGAGGLSGTNQSNVPPEERYATQLQQLQEMGFYDRAENIRALLATNGNVNAAVERLLGSIGQ
notes: DSK2B (AT2G17200), Arabidopsis thaliana, C-terminus (DSK2BCT); the limits 237 to 552 a.a. are printed for the two-hybrid construct DSK2B-CT of the same name; Cloned into EcoRI-digested pGEX-4T-1; also called pGEX-4T-1-DSK2CT; source: E. coli Rosetta (DE3), purified (GST agarose)

Key:
Assay in all cases: pull-down; GST pull-down: GST or GST-DSK2BCT incubated with His-tagged TCP in 50 mM Tris-HCl pH 7.5, 150 mM NaCl, 0.5% Triton X-100, 1 mM PMSF at 4 C for 3 h, then GST beads 1 h; blots anti-GST and anti-His
Details in all cases: both partners purified
GST-DSK2B CT = molecular target: B3
His-TCP15 = molecular target: T1, His-TCP15 (Arabidopsis thaliana, UniProt Q9C9L2 1-325)
T1 construct: TCP15 (AT1G69690), Arabidopsis thaliana; Cloned into BamHI/SalI-digested pET32a; also called recombinant His-TCP15; pET32a-TCP15; source: E. coli Rosetta (DE3), purified (Ni-NTA agarose)

His-TCP14 = molecular target: T2, His-TCP14 (Arabidopsis thaliana, UniProt Q93Z00 1-489)
T2 construct: TCP14 (AT3G47620), Arabidopsis thaliana; Cloned into BamHI/SalI-digested pET32a; also called recombinant His-TCP14; pET32a-TCP14; source: E. coli Rosetta (DE3), purified (Ni-NTA agarose)
T2 sequence (Q93Z00 whole entry): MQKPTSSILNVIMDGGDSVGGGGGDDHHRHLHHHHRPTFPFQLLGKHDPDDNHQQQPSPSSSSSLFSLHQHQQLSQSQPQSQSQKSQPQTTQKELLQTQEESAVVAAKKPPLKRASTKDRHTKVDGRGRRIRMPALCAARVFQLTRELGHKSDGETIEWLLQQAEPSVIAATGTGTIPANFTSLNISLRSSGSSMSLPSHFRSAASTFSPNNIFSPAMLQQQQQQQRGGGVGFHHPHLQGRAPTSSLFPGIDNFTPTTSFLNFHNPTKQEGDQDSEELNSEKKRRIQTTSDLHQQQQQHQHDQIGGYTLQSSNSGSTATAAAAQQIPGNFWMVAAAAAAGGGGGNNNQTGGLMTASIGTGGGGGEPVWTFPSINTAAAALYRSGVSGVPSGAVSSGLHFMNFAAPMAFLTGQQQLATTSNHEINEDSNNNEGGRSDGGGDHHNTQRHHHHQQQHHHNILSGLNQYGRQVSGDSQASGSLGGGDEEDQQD

binding result (GST-DSK2B CT) | binding result (His-TCP15) | binding result (His-TCP14) | Binder
binds |  |  | B1
binds |  |  | B2
 | binds | binds | B3

Source: paper PMC12287301, “DSK2-mediated degradation of F-box protein LAO1 and class I TCPs modulates the nitrogen starvation response” (EMBO Reports, 2025)
